Biological target: T1, KDR/flk-1 VEGF receptor of HUVEC cells (human, UniProt P35968 20-1356)
T1 construct: whole, on cells; Endogenous receptor on confluent HUVEC cells
Test: overview table, row 'Binding to Flk-1 and Flt-1 receptors'

T1 sequence (P35968 20-1356): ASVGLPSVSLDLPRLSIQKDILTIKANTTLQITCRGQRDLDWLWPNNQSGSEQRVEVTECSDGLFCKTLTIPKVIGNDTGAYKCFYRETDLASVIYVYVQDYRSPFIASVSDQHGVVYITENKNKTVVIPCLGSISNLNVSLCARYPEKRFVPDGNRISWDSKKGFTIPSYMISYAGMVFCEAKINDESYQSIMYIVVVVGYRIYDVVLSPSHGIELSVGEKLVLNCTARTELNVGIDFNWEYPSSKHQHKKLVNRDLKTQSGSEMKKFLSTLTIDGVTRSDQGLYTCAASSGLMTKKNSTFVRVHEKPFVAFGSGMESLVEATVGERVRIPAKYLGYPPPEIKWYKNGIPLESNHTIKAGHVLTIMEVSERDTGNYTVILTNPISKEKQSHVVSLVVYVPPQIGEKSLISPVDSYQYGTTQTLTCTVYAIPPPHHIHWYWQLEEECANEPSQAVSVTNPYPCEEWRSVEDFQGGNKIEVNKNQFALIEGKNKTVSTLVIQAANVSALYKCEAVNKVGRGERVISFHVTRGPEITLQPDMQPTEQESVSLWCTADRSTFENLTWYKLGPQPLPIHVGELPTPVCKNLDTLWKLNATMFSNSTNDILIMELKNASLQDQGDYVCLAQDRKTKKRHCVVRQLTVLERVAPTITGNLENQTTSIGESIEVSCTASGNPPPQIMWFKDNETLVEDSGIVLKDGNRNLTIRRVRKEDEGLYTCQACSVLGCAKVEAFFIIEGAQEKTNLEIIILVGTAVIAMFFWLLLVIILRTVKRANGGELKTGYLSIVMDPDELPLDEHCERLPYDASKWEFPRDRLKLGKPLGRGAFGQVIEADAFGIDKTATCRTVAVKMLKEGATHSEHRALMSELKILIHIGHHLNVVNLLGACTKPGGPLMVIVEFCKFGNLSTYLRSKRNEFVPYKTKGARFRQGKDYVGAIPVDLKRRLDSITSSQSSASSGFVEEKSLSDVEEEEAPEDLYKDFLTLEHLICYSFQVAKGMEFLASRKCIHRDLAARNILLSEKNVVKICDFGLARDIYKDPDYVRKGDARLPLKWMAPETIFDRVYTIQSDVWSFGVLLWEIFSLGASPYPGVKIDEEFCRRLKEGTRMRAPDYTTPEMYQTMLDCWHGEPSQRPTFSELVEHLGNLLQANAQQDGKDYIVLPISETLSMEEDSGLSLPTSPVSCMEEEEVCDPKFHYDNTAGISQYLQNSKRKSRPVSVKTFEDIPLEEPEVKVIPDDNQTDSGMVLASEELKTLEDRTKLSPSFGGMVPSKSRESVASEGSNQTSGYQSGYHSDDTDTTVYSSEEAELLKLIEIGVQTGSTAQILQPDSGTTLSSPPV

| Binder | binding result |
| --- | --- |
| VEGF121 (ligand, human, UniProt P15692-9 27-147, looked up, mature; VEGF121 isoform of VEGF-A) APMAEGGGQNHHEVVKFMDVYQRSYCHPIETLVDIFQEYPDEIEYIFKPSCVPLMRCGGCCNDEGLECVPTEESNITMQIMRIKPHQGQHIGEMSFLQHNKCECRPKKDRARQEKCDKPRR | binds |
| VEGF145 (recombinant human vascular endothelial growth factor form of 145 amino acids, exons 1-5, 6a and 8) (ligand, Produced in Sf9 insect cells with a recombinant baculovirus and partially purified on heparin-sepharose; also called r-VEGF) APMAEGGGQNHHEVVKFMDVYQRSYCHPIETLVDIFQEYPDEIEYIFKPSCVPLMRCGGCCNDEGLECVPTEESNITMQIMRIKPHQGQHIGEMSFLQHNKCECRPKKDRARQEKKSVRGKGKGQKRKRKKSRYKSWSVCDKPRR | binds |

— patent US6583276 (TECHNION RESEARCH AND DEVELOPMENT, dated 2003)
